Measurements reported in patent US20150065434A1 (MUSC FOUNDATION FOR RESEARCH DEVELOPMENT, published 2015).
Bridge positions count the residues as written; N and C are the ends. Ends that are not written are not given here.

Legend:
[1] = target: T1, human monoamine oxidase A (human, UniProt P21397 1-527, limits assumed); test: cell-based or functional assay
T1 sequence (looked up): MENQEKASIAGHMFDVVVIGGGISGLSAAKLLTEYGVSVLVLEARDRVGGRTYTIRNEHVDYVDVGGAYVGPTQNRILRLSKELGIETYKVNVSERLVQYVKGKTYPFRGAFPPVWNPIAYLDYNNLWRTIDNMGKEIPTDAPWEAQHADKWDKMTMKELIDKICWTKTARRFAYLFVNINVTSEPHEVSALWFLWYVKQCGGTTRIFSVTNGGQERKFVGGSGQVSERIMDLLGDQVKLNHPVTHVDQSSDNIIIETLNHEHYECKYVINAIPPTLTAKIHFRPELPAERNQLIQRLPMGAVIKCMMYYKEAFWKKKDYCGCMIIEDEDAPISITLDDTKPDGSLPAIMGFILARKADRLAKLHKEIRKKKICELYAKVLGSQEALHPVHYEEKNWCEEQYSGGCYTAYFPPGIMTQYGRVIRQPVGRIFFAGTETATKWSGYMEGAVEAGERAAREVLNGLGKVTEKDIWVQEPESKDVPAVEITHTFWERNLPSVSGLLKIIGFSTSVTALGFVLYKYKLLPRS

[2] = target: T2, human monoamine oxidase B (human, UniProt P27338 1-520, limits assumed); test: cell-based or functional assay
T2 sequence (looked up): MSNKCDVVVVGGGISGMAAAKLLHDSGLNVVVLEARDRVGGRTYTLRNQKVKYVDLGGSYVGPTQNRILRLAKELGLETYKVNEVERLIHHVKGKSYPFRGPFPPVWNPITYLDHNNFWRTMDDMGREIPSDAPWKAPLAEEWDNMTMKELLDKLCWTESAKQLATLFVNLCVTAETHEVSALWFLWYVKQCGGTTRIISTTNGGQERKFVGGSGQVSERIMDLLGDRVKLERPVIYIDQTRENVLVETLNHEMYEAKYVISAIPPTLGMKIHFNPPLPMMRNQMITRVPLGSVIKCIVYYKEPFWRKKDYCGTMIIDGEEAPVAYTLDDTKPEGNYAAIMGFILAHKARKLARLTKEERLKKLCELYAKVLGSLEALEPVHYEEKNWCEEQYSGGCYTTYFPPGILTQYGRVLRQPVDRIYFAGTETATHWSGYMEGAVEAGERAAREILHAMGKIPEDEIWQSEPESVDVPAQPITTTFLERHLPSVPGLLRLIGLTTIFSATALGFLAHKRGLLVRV

B1: [Met]^4 H3 (1-21)-NH2 cyclic peptide 11, lactam bridge between Lys5 and Glu10 (peptide)
peptide: ARTMKTARKETGGKAPRKQLA-NH2
modifications: lactam 5-10
[1]
  IC50 (inhibition of MAO-A): > 100 µM
[2]
  IC50 (inhibition of MAO-B): > 100 µM
